Test results taken from patent US11739161B2, “Methods for treating and diagnosing prostate cancer” (Tufts Medical Center, Inc., priority 2017, dated 2023).

Assays:
Assay type in all cases: cell-based, human
DU145 cells = experiment: Cell cycle analysis by flow cytometry; conditions: exogenous RNASE4 1 μg/ml
Procedure: FIGS. 10A-E. RNASE4 induces prostate cancer cell proliferation and phosphorylation of AKT and S6. (A and B) Exogenous RNASE4 (1 μg/ml) stimulates cell proliferation (A) and cell cycle progression (B) of DU145 cells cultured in the presence of 2% FBS. Cell numbers were determined by MTT assay. […] (C) Time course of AKT and S6 phosphorylation of serum-starved DU145 cells by RNASE4 (1 μg/ml). Left panels, immunoblots; right panels, quantification of p-AKT and p-S6 normalized to total AKT and S6 by Image J analysis. […] Cells were pre-incubated with the inhibitors at the indicated concentrations for 1 hour prior to be stimulated by 1 μg/ml of RNASE4 for 5 minutes. Top panels, immunoblots; bottom panels, Image J quantification of p-AKT and p-S6 normalized to total AKT and S6. (E) Effect of AKT inhibitor MK-2206, PI3K inhibitors Wortmannin and LY294002, and mTOR inhibitor Rapamycin on RNASE4-induced cell proliferation. DU145 cells were serum-starved overnight, incubated with the inhibitors for 1 hour, and then treated with RNASE4 (1 μg/ml) for three days. Cell numbers were determined by MTT assay. Data shown are from a representative experiments in triplicates of 3 independent repeats. […]
FIGS. 17A-C. […] Cell numbers were determined by a Coulter counter. […] Cell cycle status was determined by flow cytometry. […] Bottom panels, tube length and number of loops counted from 5 randomly selected areas. […]

[1] = system: AKT and S6 phosphorylation in PC-3 cells; experiment: RNASE4-induced phosphorylation of AKT and S6 (immunoblot); conditions: serum-starved PC-3, RNASE4 1 μg/ml, time course
Procedure: FIGS. 11A-F. RNASE4 induces PC-3 cell proliferation and phosphorylation of AKT and S6. (A) Exogenous RNASE4 (1 μg/ml) stimulates PC-3 cells proliferation in the presence of 2% FBS. Cell numbers were determined by MTT assay. (B) Time course of AKT and S6 phosphorylation of serum-starved PC-3 cells by RNASE4 (1 μg/ml). Left panels, immunoblots; right panels, quantification of p-AKT and p-S6 normalized to total AKT and S6 by Image J. (C) Effect of AKT inhibitor MK-2206, PI3K inhibitors LY294002 and Wortmannin, and mTOR inhibitor Rapamycin on RNASE4-induced PC-3 cell proliferation. Cells were pre-incubated with the inhibitors at the indicated concentrations for 1 hour prior to be stimulated by RNASE4 (1 μg/ml) for 3 days. Cell numbers were determined by MTT assay. (D) Human phospho-RTK antibody array analysis of starved PC-3 cells treated with or without 1 μg/ml RNASE4 for 5 minutes. (E) Time course of AXL phosphorylation stimulated by RNASE4 in PC-3 cells. Serum-starved PC-3 cells were treated with 1 μg/ml RNASE4 for different time. Cell lysates were analyzed for total AXL and phopho-AXL by immunoblotting. Left panels, immunoblots; right panel, quantification phospho-AXL normalized to total AXL by Image J analysis. (F) Effect of AXL inhibitor R428 on RNASE4-induced PC-3 cell proliferation. […] Cell numbers were determined by MTT assay. […]

PC-3 cells = experiment: RNASE4 knockdown, cell proliferation (Coulter counter); conditions: PC-3, exogenous RNASE4 1 μg/ml
Description: FIGS. 13A-D. RNASE4 knockdown reduces prostate cancer cell proliferation in vitro and colony formation in soft agar. (A) Immunoblot analysis of RNASE4 in PC-3 cells stably transfected with shControl, shRNASE4-1, and shRNASE4-2. (B) qRT-PCR analysis of RNASE4 mRNA normalized to GAPDH in PC-3 cells stably transfected with shControl, shRNASE4-1, and shRNASE4-2. (C) Effect of RNASE4 knockdown on cell proliferation. Cell numbers were counted by a Coulter counter. Exogenous RNASE4, when presented, was at the concentration of 1 μg/ml. Data shown are from representative experiment (in triplicates) of 3 independent repeats. (D) Effects of RNASE4 knockdown on colonies formation and growth of PC-3 cells in soft agar. The same numbers of control and RNASE4 knockdown cells were seeded in soft agar, and grown in the absence or presence of 1 μg/ml of RNASE4 for 14 days. Colonies were counted and size measured on a Nikon Eclipse ti microscope. Left panels, representative images of colonies; scale bars=100 μm. Right panels, quantification of colony numbers and sizes. Data shown are means±SEM from five randomly selected fields per dish from a representative experiment. *P≤0.05, **P≤0.01, and ***P≤0.001, by two-tailed Student's t test.
Lentiviral mediated shRNA system (pGIPZ, Open Biosystems) was used to generate control and RNASE4 knockdown cell lines. […]

B1: RNASE4: recombinant human RNASE4 protein from pET11 expression in E. coli, purified by reversed-phase HPLC; added exogenously (protein, UniProt P34096 29-147, looked up)
Ribonuclease 4: QDGMYQRFLRQHVHPEETGGSDRYCNLMMQRRKMTLYHCKRFNTFIHEDIWNIRSICSTTNIQCKNGKMNCHEGVVKVTDCRDTGSSRAPNCRYRAIASTRRVVIACEGNPQVPVHFDG
G0/G1 population (DU145 cells): decreased
G2/S/M phase population (DU145 cells): increased
activation (phosphorylation) of AKT and S6 [1]: rapidly and continuously activated
rescue of the effect of RNASE4 knockdown on cell proliferation (PC-3 cells): able to rescue
